Measurements from patent publication US20260242478A1 (published 2026).
Where no end group is shown, it is not given here.

B1: Phage-1169 (peptide)
peptide: YCEGHVAEYRAKCL
modifications: cysteine pairing not given here; also: displayed on phage by fusion to pIII, linker and pIII sequence not given here
notes: Clonal phage of the Peptide-87 library; not shown: fused to the pIII filament of the bacteriophage
B2: Phage-1170 (peptide)
peptide: YCQGHLPQYIEKCL
modifications: cysteine pairing not given here; also: displayed on phage by fusion to pIII, linker and pIII sequence not given here
notes: as for B1

Legend:
[1] = target: T1, Anti-CD28 Fab (SEQ ID NOs: 696, 697); experiment: phage ELISA on captured anti-CD28 Fab, wells pre-incubated with CD28 antigen as competitor;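 further: crude clonal phage supernatants added without washing, bound phage read out by HRP-coupled anti-M13 antibody, reference wells given blocking buffer only instead of CD28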
T1 construct: Biotinylated and captured on neutravidin coated plates in the phage ELISA
T1 sequence (VH, as listed by the source, chain 1 of 2): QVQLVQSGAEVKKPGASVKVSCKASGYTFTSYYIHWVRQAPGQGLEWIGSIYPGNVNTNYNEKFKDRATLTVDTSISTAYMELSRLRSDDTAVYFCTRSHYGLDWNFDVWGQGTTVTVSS
T1 sequence (VL, as listed by the source, chain 2 of 2): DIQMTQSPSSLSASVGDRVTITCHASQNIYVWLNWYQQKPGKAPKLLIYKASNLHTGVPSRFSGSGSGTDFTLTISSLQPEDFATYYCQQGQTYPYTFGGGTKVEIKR
Experimental: (§1) After panning, phage infected bacteria were plated out and colonies picked into 96 well blocks. Clonal phage was then amplified and separated from bacterial cells via centrifugation.
(§2) Clonal phage were harvested as crude supematants and screened via standard ELISAs. […] Prior to the addition of clonal phage, wells were incubated with blocking buffer and CD28 antigen or blocking buffer alone. Without washing or aspirating, clonal phage supematants were then added to the wells and incubated for a short time. Wells were then washed followed by detection of bound phage using a horse radish conjugated anti-M13 antibody. Clonal phage of interest were then sent for sequence analysis.

[2] = target: T1, Anti-CD28 Fab (SEQ ID NOs: 696, 697); experiment: phage ELISA, clonal phage on biotinylated anti-CD28 Fab captured on neutravidin plates;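 further: crude clonal phage supernatants added to wells pretreated with CD28 antigen or with blocking buffer only, bound phage detected by HRP-linked anti-M13 antibody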
Experimental: as §1, §2

[3] = target: T2, Anti-CD28 Fab (SEQ ID NOs: 696, 697); experiment: phage ELISA, clonal phage on biotinylated anti-CD28 Fab captured on neutravidin, anti-M13-HRP detection
T2 construct: Biotinylated and captured on neutravidin coated plates in the phage ELISA
T2 sequence (VH, as listed by the source, chain 1 of 2): as the sequence (VH, as listed by the source, chain 1 of 2) above
T2 sequence (VL, as listed by the source, chain 2 of 2): as the sequence (VL, as listed by the source, chain 2 of 2) above
Experimental: as §1, §2

[4] = target: T2, Anti-CD28 Fab (SEQ ID NOs: 696, 697); experiment: phage ELISA on captured anti-CD28 Fab, wells first incubated with CD28 antigen (competitor)
Experimental: as §1, §2

[5] = target: T3, Anti-CD28 Fab (SEQ ID NOs: 696, 697); experiment: phage binding ELISA; biotinylated anti-CD28 Fab on neutravidin plate, clonal phage supernatant, anti-M13 HRP detection
T3 construct: In the phage ELISA the Fab was biotinylated and captured on neutravidin coated plates
T3 sequence (VH, as listed by the source, chain 1 of 2): as the sequence (VH, as listed by the source, chain 1 of 2) above
T3 sequence (VL, as listed by the source, chain 2 of 2): as the sequence (VL, as listed by the source, chain 2 of 2) above

[6] = target: T3, Anti-CD28 Fab (SEQ ID NOs: 696, 697); experiment: phage binding ELISA with the Fab-coated wells pre-incubated with CD28 antigen (competitor: CD28), anti-M13 HRP detection
Experimental: as §1, §2

[7] = target: Anti-CD28 Fab (SEQ ID NOs: 696, 697); experiment: phage binding ELISA; biotinylated anti-CD28 Fab on neutravidin plate, clonal phage supernatant, anti-M13 HRP;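 further: crude clonal phage supernatants screened after wells were preincubated either with CD28 antigen in blocking buffer or with blocking buffer only, phage added without washing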
Target sequence in this assay (VH, as listed by the source, chain 1 of 2): as the sequence (VH, as listed by the source, chain 1 of 2) above
Target sequence in this assay (VL, as listed by the source, chain 2 of 2): as the sequence (VL, as listed by the source, chain 2 of 2) above
Experimental: as §1, §2

[8] = target: Anti-CD28 Fab (SEQ ID NOs: 696, 697); experiment: phage binding ELISA on captured anti-CD28 Fab; competitor CD28 antigen pre-incubated in the wells
Target sequence in this assay (VH, as listed by the source, chain 1 of 2): as the sequence (VH, as listed by the source, chain 1 of 2) above
Target sequence in this assay (VL, as listed by the source, chain 2 of 2): as the sequence (VL, as listed by the source, chain 2 of 2) above
Experimental: as §1, §2

| Binder | Anti-CD28 Fab signal (phage binding ELISA) [3] | Anti-CD28 Fab signal in the presence of CD28 (phage binding ELISA) [4] | Anti-CD28 Fab signal (phage binding ELISA) [5] | Anti-CD28 Fab signal in the presence of CD28 (phage binding ELISA) [6] | other results |
| --- | --- | --- | --- | --- | --- |
| YCEGHLPMYMTKCL [Phage-1136] | – | – | – | – | Anti-CD28 Fab signal in the presence of CD28 (phage binding ELISA) [1]: 0.06; Anti-CD28 Fab signal (phage binding ELISA) [2]: 1.25 |
| YCDGHLEQYMLKCL [Phage-1142] | – | – | – | – | Anti-CD28 Fab signal in the presence of CD28 (phage binding ELISA) [1]: 0.09; Anti-CD28 Fab signal (phage binding ELISA) [2]: 1.24 |
| YCDGHVEEYMTKCL [Phage-1141] | – | – | – | – | Anti-CD28 Fab signal in the presence of CD28 (phage binding ELISA) [1]: 0.07; Anti-CD28 Fab signal (phage binding ELISA) [2]: 1.24 |
| YCEGHSAEHMPKCL [Phage-1146] | 1.23 | 0.09 | – | – | – |
| YCEGHAAEYLWKCL [Phage-1154] | 1.18 | 0.09 | – | – | – |
| YCEGHTQEYMQKCL [Phage-1138] | – | – | – | – | Anti-CD28 Fab signal in the presence of CD28 (phage binding ELISA) [1]: 0.07; Anti-CD28 Fab signal (phage binding ELISA) [2]: 1.24 |
| YCAGHAPEYISKCL [Phage-1152] | 1.21 | 0.07 | – | – | – |
| YCDGHLPDYMAKCL [Phage-1161] | – | – | 1.17 | 0.07 | – |
| YCEGHAEQYMEKCL [Phage-1162] | – | – | 1.17 | 0.08 | – |
| YCEGHSTEYIQKCL [Phage-1144] | 1.23 | 0.09 | – | – | – |
| YCEGHLPQYMSKCL [Phage-1168] | – | – | 1.15 | 0.09 | – |
| YCEGHIGIYMSKCL [Phage-1143] | 1.23 | 0.07 | – | – | – |
| YCEGHAGVYMAKCL [Phage-1157] | – | – | 1.17 | 0.05 | – |
| YCEGHMPEYLAKCL [Phage-1156] | – | – | 1.18 | 0.07 | – |
| B1 | – | – | – | – | Anti-CD28 Fab (SEQ ID NOs: 696, 697) signal [7]: 1.15; Anti-CD28 Fab signal in the presence of CD28 [8]: 0.09 |
| YCDGHLSVYMSKCL [Phage-1167] | – | – | 1.15 | 0.07 | – |
| YCAGHSSEYIGKCL [Phage-1159] | – | – | 1.17 | 0.06 | – |
| YCAGHLDIYLAKCL [Phage-1151] | 1.21 | 0.07 | – | – | – |

| Binder | Anti-CD28 Fab signal (phage binding ELISA) [3] | Anti-CD28 Fab signal in the presence of CD28 (phage binding ELISA) [4] | Anti-CD28 Fab signal (phage binding ELISA) [5] | Anti-CD28 Fab signal in the presence of CD28 (phage binding ELISA) [6] | other results |
| --- | --- | --- | --- | --- | --- |
| YCEGHSYQYMQKCL [Phage-1164] | – | – | 1.16 | 0.06 | – |
| YCDGHRPEYMSKCL [Phage-1155] | 1.18 | 0.07 | – | – | – |
| YCEGHLKEYMQKCL [Phage-1163] | – | – | 1.17 | 0.07 | – |
| YCHGHLPQYMSKCM [Phage-1150] | 1.21 | 0.06 | – | – | – |
| YCDGHSWEYLGKCL [Phage-1153] | 1.2 | 0.05 | – | – | – |
| B2 | – | – | – | – | Anti-CD28 Fab (SEQ ID NOs: 696, 697) signal [7]: 1.14; Anti-CD28 Fab signal in the presence of CD28 [8]: 0.06 |
| YCEGHSQTYMWKCL [Phage-1158] | – | – | 1.17 | 0.08 | – |
| YCEGHSQQYMWKCL [Phage-1160] | – | – | 1.17 | 0.05 | – |
| YCVGHYPEYMEKCL [Phage-1147] | 1.22 | 0.07 | – | – | – |
| YCEGHRAEYMSKCL [Phage-1165] | – | – | 1.16 | 0.09 | – |
| YCEGHLAEYMNKCL [Phage-1140] | – | – | – | – | Anti-CD28 Fab signal in the presence of CD28 (phage binding ELISA) [1]: 0.07; Anti-CD28 Fab signal (phage binding ELISA) [2]: 1.24 |
| YCDGHSEQYMAKCL [Phage-1137] | – | – | – | – | Anti-CD28 Fab signal in the presence of CD28 (phage binding ELISA) [1]: 0.06; Anti-CD28 Fab signal (phage binding ELISA) [2]: 1.24 |
| YCDGHSMMYMQKCL [Phage-1145] | 1.23 | 0.06 | – | – | – |
| YCDGHEARYMQKCL [Phage-1148] | 1.21 | 0.07 | – | – | – |
| YCAGHTAEYMAKCL [Phage-1139] | – | – | – | – | Anti-CD28 Fab signal in the presence of CD28 (phage binding ELISA) [1]: 0.08; Anti-CD28 Fab signal (phage binding ELISA) [2]: 1.24 |
| YCDGHSQEYMSKCL [Phage-1149] | 1.21 | 0.06 | – | – | – |
| YCDGHSWIYMVKCL [Phage-1166] | – | – | 1.16 | 0.06 | – |
